Test system: Escherichia coli TOP10
Assay: shrunken log2 fold change of peptide-encoding DNA abundance (4.5 h post-induction vs induction); higher = less antimicrobial activity (less host growth inhibition)
Conditions: time post-induction: 4.5 h; library: site-saturation at positions 5, 18, 19, 20
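Note: peptides expressed intracellularly from a pBAD plasmid library in pooled LB shake-flask culture, induced with 0.3% L-arabinose, DNA abundance read by NGS, three biological replicates, DESeq2 with apeglm shrinkage.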

Row | Sequence | shrunken log2 fold change
1 | RRIRPRPPRLPRPRPRPQVIPRP | -0.0452
2 | RRIRPRPPRLPRPRPRPQWDPRP | -0.355
3 | RRIRPRPPRLPRPRPRPQWLPRP | -0.0256
4 | RRIRPRPPRLPRPRPRPQWNPRP | 0.36
5 | RRIRPRPPRLPRPRPRPQWWPRP | 0.111
6 | RRIRPRPPRLPRPRPRPQYDPRP | -0.638
7 | RRIRPRPPRLPRPRPRPRAEPRP | 0.526
8 | RRIRPRPPRLPRPRPRPRARPRP | 0.58
9 | RRIRPRPPRLPRPRPRPRCDPRP | 0.0398
10 | RRIRPRPPRLPRPRPRPRDAPRP | 0.635
11 | RRIRPRPPRLPRPRPRPRDYPRP | 0.144
12 | RRIRPRPPRLPRPRPRPRFCPRP | 0.225
13 | RRIRPRPPRLPRPRPRPRFKPRP | 0.166
14 | RRIRPRPPRLPRPRPRPRGNPRP | -0.16
15 | RRIRPRPPRLPRPRPRPRGYPRP | 0.523
16 | RRIRPRPPRLPRPRPRPRIIPRP | -0.18
17 | RRIRPRPPRLPRPRPRPRLFPRP | 1.92
18 | RRIRPRPPRLPRPRPRPRNVPRP | 0.0758
19 | RRIRPRPPRLPRPRPRPRPYPRP | 0.173
20 | RRIRPRPPRLPRPRPRPRQDPRP | 0.351
21 | RRIRPRPPRLPRPRPRPRQWPRP | 0.485
22 | RRIRPRPPRLPRPRPRPRRIPRP | 0.252

Row | Sequence | shrunken log2 fold change
23 | RRIRPRPPRLPRPRPRPRRSPRP | 0.124
24 | RRIRPRPPRLPRPRPRPRRTPRP | 0.507
25 | RRIRPRPPRLPRPRPRPRSAPRP | 0.497
26 | RRIRPRPPRLPRPRPRPRSMPRP | 0.0858
27 | RRIRPRPPRLPRPRPRPRTSPRP | 0.59
28 | RRIRPRPPRLPRPRPRPRVIPRP | 0.033
29 | RRIRPRPPRLPRPRPRPRVPPRP | 0.342
30 | RRIRPRPPRLPRPRPRPRWNPRP | 0.115
31 | RRIRPRPPRLPRPRPRPSCGPRP | 0.137
32 | RRIRPRPPRLPRPRPRPSDHPRP | -0.605
33 | RRIRPRPPRLPRPRPRPSFPPRP | -0.0649
34 | RRIRPRPPRLPRPRPRPSFWPRP | 0.129
35 | RRIRPRPPRLPRPRPRPSHGPRP | 0.108
36 | RRIRPRPPRLPRPRPRPSILPRP | -0.0331
37 | RRIRPRPPRLPRPRPRPSKPPRP | 0.0728
38 | RRIRPRPPRLPRPRPRPSKRPRP | -0.00797
39 | RRIRPRPPRLPRPRPRPSLEPRP | 0.0508
40 | RRIRPRPPRLPRPRPRPSMQPRP | -0.29
41 | RRIRPRPPRLPRPRPRPSNFPRP | -0.168
42 | RRIRPRPPRLPRPRPRPSPFPRP | -0.0752
43 | RRIRPRPPRLPRPRPRPSPIPRP | 0.335
44 | RRIRPRPPRLPRPRPRPSPLPRP | 0.0443

Row | Sequence | shrunken log2 fold change
45 | RRIRPRPPRLPRPRPRPSPVPRP | 0.0207
46 | RRIRPRPPRLPRPRPRPSQKPRP | 0.188
47 | RRIRPRPPRLPRPRPRPSREPRP | 0.113
48 | RRIRPRPPRLPRPRPRPSRIPRP | -0.0841
49 | RRIRPRPPRLPRPRPRPSSAPRP | 0.0846
50 | RRIRPRPPRLPRPRPRPSTCPRP | -0.11
51 | RRIRPRPPRLPRPRPRPSTKPRP | -0.0696
52 | RRIRPRPPRLPRPRPRPSTTPRP | -0.326
53 | RRIRPRPPRLPRPRPRPSVFPRP | -0.0552
54 | RRIRPRPPRLPRPRPRPSVLPRP | 0.0488
55 | RRIRPRPPRLPRPRPRPSWLPRP | -0.0766
56 | RRIRPRPPRLPRPRPRPSYCPRP | -0.387
57 | RRIRPRPPRLPRPRPRPSYLPRP | -0.562
58 | RRIRPRPPRLPRPRPRPTAMPRP | 0.0577
59 | RRIRPRPPRLPRPRPRPTATPRP | 0.425
60 | RRIRPRPPRLPRPRPRPTCVPRP | -0.136
61 | RRIRPRPPRLPRPRPRPTDCPRP | 0.165
62 | RRIRPRPPRLPRPRPRPTEDPRP | -0.18
63 | RRIRPRPPRLPRPRPRPTGNPRP | 0.141
64 | RRIRPRPPRLPRPRPRPTHTPRP | 0.13
65 | RRIRPRPPRLPRPRPRPTIAPRP | -0.0457
66 | RRIRPRPPRLPRPRPRPTIHPRP | -0.428

Row | Sequence | shrunken log2 fold change
67 | RRIRPRPPRLPRPRPRPTIRPRP | 0.172
68 | RRIRPRPPRLPRPRPRPTIYPRP | -0.413
69 | RRIRPRPPRLPRPRPRPTKDPRP | -0.166
70 | RRIRPRPPRLPRPRPRPTKNPRP | 0.0886
71 | RRIRPRPPRLPRPRPRPTLTPRP | 1.22
72 | RRIRPRPPRLPRPRPRPTMHPRP | 0.0766
73 | RRIRPRPPRLPRPRPRPTMSPRP | 0.0176
74 | RRIRPRPPRLPRPRPRPTMTPRP | 0.0633
75 | RRIRPRPPRLPRPRPRPTNEPRP | 0.0205
76 | RRIRPRPPRLPRPRPRPTNNPRP | -0.329
77 | RRIRPRPPRLPRPRPRPTQAPRP | 0.0364
78 | RRIRPRPPRLPRPRPRPTQHPRP | 0.262
79 | RRIRPRPPRLPRPRPRPTQMPRP | 0.395
80 | RRIRPRPPRLPRPRPRPTRFPRP | 0.41
81 | RRIRPRPPRLPRPRPRPTSGPRP | 0.173
82 | RRIRPRPPRLPRPRPRPTTVPRP | 0.0207
83 | RRIRPRPPRLPRPRPRPTVQPRP | 0.182
84 | RRIRPRPPRLPRPRPRPTWYPRP | -0.133
85 | RRIRPRPPRLPRPRPRPTYRPRP | -0.236
86 | RRIRPRPPRLPRPRPRPTYSPRP | -0.104
87 | RRIRPRPPRLPRPRPRPVAMPRP | 0.0478
88 | RRIRPRPPRLPRPRPRPVANPRP | 0.495

Row | Sequence | shrunken log2 fold change
89 | RRIRPRPPRLPRPRPRPVDNPRP | 0.0523
90 | RRIRPRPPRLPRPRPRPVEFPRP | 0.068
91 | RRIRPRPPRLPRPRPRPVHTPRP | -0.036
92 | RRIRPRPPRLPRPRPRPVIGPRP | 0.0389
93 | RRIRPRPPRLPRPRPRPVIIPRP | -0.286
94 | RRIRPRPPRLPRPRPRPVIRPRP | -0.074
95 | RRIRPRPPRLPRPRPRPVKYPRP | -0.303
96 | RRIRPRPPRLPRPRPRPVLFPRP | 0.118
97 | RRIRPRPPRLPRPRPRPVMAPRP | -0.128
98 | RRIRPRPPRLPRPRPRPVMHPRP | 0.15
99 | RRIRPRPPRLPRPRPRPVNCPRP | -0.118
100 | RRIRPRPPRLPRPRPRPVNEPRP | -0.00503
101 | RRIRPRPPRLPRPRPRPVNTPRP | -0.634
102 | RRIRPRPPRLPRPRPRPVPCPRP | 0.0816
103 | RRIRPRPPRLPRPRPRPVQAPRP | -0.013
104 | RRIRPRPPRLPRPRPRPVQFPRP | 0.197
105 | RRIRPRPPRLPRPRPRPVQMPRP | 0.0287
106 | RRIRPRPPRLPRPRPRPWAHPRP | -0.00675
107 | RRIRPRPPRLPRPRPRPWCCPRP | -0.0996
108 | RRIRPRPPRLPRPRPRPWCFPRP | -0.295
109 | RRIRPRPPRLPRPRPRPWCSPRP | -0.201
